The target in assay [1] is cof1_rat Cfl1 (UniProt P45592).
Assay [2] deals with cof1_rat Cfl1 (UniProt P45592). The source holds these as a separate data set.
A further assay has as its target cofa_dicdi cofA (UniProt P0DJ26).

Chain of Src substrate cortactin (Mus musculus), Q60598 Y421F;Y466F;Y482F (Q60598 whole entry Y421F/Y466F/Y482F): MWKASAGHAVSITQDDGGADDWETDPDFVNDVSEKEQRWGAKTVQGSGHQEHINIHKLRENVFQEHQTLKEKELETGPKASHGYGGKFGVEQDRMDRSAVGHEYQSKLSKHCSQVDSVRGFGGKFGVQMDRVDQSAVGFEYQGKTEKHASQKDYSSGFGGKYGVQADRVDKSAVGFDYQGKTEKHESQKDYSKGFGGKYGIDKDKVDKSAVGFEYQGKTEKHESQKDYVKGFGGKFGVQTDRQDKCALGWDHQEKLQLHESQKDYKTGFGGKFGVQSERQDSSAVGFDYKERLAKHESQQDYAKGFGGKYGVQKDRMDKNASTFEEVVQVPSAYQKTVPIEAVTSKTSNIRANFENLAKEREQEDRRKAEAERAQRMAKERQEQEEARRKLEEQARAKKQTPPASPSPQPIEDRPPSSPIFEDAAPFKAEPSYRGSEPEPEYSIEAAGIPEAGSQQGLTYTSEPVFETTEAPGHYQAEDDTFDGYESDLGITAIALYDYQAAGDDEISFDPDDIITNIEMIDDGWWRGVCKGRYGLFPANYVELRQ
Chain of cof1_rat Cfl1 (P45592 whole entry): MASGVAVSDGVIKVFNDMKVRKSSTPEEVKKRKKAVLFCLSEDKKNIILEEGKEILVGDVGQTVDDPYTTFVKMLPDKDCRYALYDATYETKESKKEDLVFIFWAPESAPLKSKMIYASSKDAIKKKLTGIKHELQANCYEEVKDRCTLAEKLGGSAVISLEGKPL
Chain of cofa_dicdi cofA (P0DJ26 whole entry): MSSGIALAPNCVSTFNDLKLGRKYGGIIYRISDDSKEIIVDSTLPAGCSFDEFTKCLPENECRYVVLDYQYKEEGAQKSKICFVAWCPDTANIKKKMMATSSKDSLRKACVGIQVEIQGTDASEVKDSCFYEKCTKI
Chain of Src substrate cortactin (Mus musculus), Q60598 Y421E;Y466E;Y482E (Q60598 whole entry Y421E/Y466E/Y482E): as the sequence (Q60598 whole entry Y421F/Y466F/Y482F) above, with F421E, F466E, F482E counted along it

Consider “Src substrate cortactin (Mus musculus), Q60598 Y421E;Y466E;Y482E”, for which the “effect of a mutation on the interaction” value with cof1_rat Cfl1 [1] is given as “decreasing interaction”.

Regarding “Src substrate cortactin (Mus musculus), Q60598 Y421F;Y466F;Y482F”, the “effect of a mutation on the interaction” value with cof1_rat Cfl1 [2] and with cofa_dicdi cofA was “increasing interaction” each time.

The values above are taken from IntAct's records for PubMed 19704022.
